Source: patent US7648964B2, “Use of lacritin in promoting ocular cell survival” (University of Virginia Patent Foundation, priority 2004, dated 2010)

System: rat lacrimal acinar cells
Experiment: Secretion by freshly isolated rat lacrimal acinar cells (peroxidase assay)
Format: cell-based
Procedure: Freshly isolated rat lacrimal acinar cells, and HSG (human salivary gland) ductal and HCE (human corneal epithelial) cell lines were used to study lacritin function. For secretion studies, rat acinar cells were plated serum-free overnight on wells co-coated with 0.05 μM laminin 1 (to ensure adhesion) and 0 to 20 μM lacritin, or alternatively with laminin-1 (0.05 μM) and treated the next day with serum-free medium containing 0 to 162 ng/ml of soluble lacritin for four hours. Unstimulated and stimulated (carbachol 10^−4 M/VIP 10^−8 M) secretions were then collected, assessed (peroxidase assay) and normalized to μg cellular DNA. To study tyrosine phosphorylation, overnight serum-free cultures of both rat lacrimal acinar and HSG cells were washed and treated with 10 ng/ml of soluble lacritin for 0.5, 2.5, 10, and 30 minutes. […] Using an inverted Zeiss 510 LSM for visualization, 50 second baseline images were first recorded. While the laser was running, lacritin was added (final concentration 4 and 40 ng/ml) and the response continually monitored every 786 msec for a minimum of 200 sec.
Lacritin function of three types of epithelial cells was assessed in serum-free cultures of: 1) lacrimal acinar; 2) salivary ductal; and 3) corneal epithelial cells using secretion (acinar), proliferation (ductal), tyrosine phosphorylation (acinar, ductal) and calcium signaling (corneal epithelial) assays. […]

B1: lacritin: recombinant human lacritin from E. coli; mature 119 residue fragment (SEQ ID NO:10) of native lacritin SEQ ID NO:4 (protein, listed as Homo sapiens)
chain: EDASSDSTGADPAQEAGTSKPNEEISGPAEPASPPETTTTAQETSAAAVQGTAKVTSSRQELNPLKSIVEKSILLTEQALAKAGKGMHGGVPGGKQFIENGSEFAQKLLKKFSLLKPWA
- stimulated secretory pathways (activated by agonists carbachol and VIP): no effect
- unstimulated secretion (coated and soluble lacritin, serum-free): enhanced unstimulated secretion in a dose-dependent manner
